Source: the DeepSol protein solubility set

Assay: soluble on expression in E. coli; label from the status in PepcDB or PDB records

| Sequence | soluble on expression in E. coli |
| --- | --- |
| MRHSSYEHVPNRIIPPHIPIDARRGDFDRRPGPPVPSMRAAILGGSDPYHGFQPVVDTYNGPVVDNSRRRGFDKGPFGEDLTTMGRNEGRQPLLRHPRLDFEHIGGEMEIARSRSASPEIQVISARSVRDDRRRDKPRQRRSSRSRSRDRGDKDHRKPAASRRSDRESTYRERLGSSSGPAAAPDIIRDGMVWANDNYFEFLSFYIEVLNEKLRSSVDRDVKGIREIREVITPATEPEKDRIVLPPNFNRSDRERMLHCDTTITGLPTAIFFGSGYGPREHYAKYSAAKDFFDKCLKIRVMDDELHAAIGEWPRLDRTFKTQFKVNISKSVNAVILLIKRMANEQLPPGFMTMRTLPIDIIDRFKFLLRMVVADVYYQGTESSMAVPKALETGYNTQPYPPNQYPLDTDIRRPSERPSNGPSAEEAARVRDQEIKEQVARELEKRQKVMEQEIRAKILEEERARIQGEAEREKKLELMKAEEQKYQKEKEMKEFEEQQKKAMMTKQVEDDFNVMVEQLEKMFVEVRSKGLNHILDMIYGSATFKTIQLYSSTLTSLSFEQKQKLVQDLRSLLDSVTMGMKVAAVAQMSQAQNPIQGGLFQHQQQQQQPMMSGGGGFVSGVQVVPMQVPMQSYQMPQMQIHHQAFPQPQQLNTTPLLSSSVPMRRDEVRRVTVGDMRLRSLSRSEQRDLRVGNKIIAQDSKTGTWTLATVVKIREDRVTVSVANGTWKKDIDDLYKEDDGSLVY | not soluble |
| MESAIKKRRLEDSKLLGDLWQRLSHSRKKLMEIFHIILNQICLLPILESSCDNIHGFIEEFLQIFSSLLQEKRFLRDYDALFPVAEDISLLQQASSVLDETRTAYILQAVESAWEGVDRRKATDAKDPSVIEEPNGEPNGVTVTAEAVSQASSHPENSEEEECMGAAAAVGPAMCGVELDSLISQVKDLLPDLGEGFILACLEYYHYDPEQVINNILEERLAPTLSQLDRNLDREMNPDPTPLLTSRHNVFQNDEFDVFSRDSVDLSRVHKGKSTRKEENTRSLLNDKRAVAAQRQCYEQYSVVVEEVPLQPGESLPYHSVYYEDEYDDTYDGNQVGANDADSDDELISRRPFTIPQVLRTKVPREGQEEDDDDEEDDADEEAPKPDHFVQDPAVLREKAEARRMAFLAKKGYRHDSSTAVAGSPRGHGQSRETTQERRKKEANKATRANHNRRTMADRKRSKGMIPS | soluble |
| MDDILVTSDLTSRYKISRKTLWSWQSADTMPRGFVCPFPPPDWPGNPNRWRSESIKEWEDKKKIN | not soluble |
| MGHHHHHHSHMSASYISDPVIAGTNMTWSQEKQSLLMQGEILVETRSHTAWGGAVSACMYLPLRRSQVWQQITDYPRWVQYFPDITKSEVLQRGEVKRLYQAAQKAFFFFTAQVEIYLNVVEVIGHKIQFRMEKGTFVDFTANLELKDCGDGTLLIYGVQATPNIPVPSIFIQQAMNFELPTNMRKMRQVISNSVNS | not soluble |
| MARTVFCEYLKKEAEGLDFQLYPGELGKRIFDSVSKQAWGEWIKKQTMLVNEKKLNMMNAEHRKLLEQEMVNFLFEGKDVHIEGYVPPSN | not soluble |
| MTDSKYFTTNKKGEIFELKAELNNEKKEKRKEAVKKVIAAMTVGKDVSSLFPDVVNCMQTDNLELKKLVYLYLMNYAKSQPDMAIMAVNSFVKDCEDPNPLIRALAVRTMGCIRVDKITEYLCEPLRKCLKDEDPYVRKTAAVCVAKLHDINAQMVEDQGFLDSLRDLIADSNPMVVANAVAALSEISESHPNSNLLDLNPQNINKLLTALNECTEWGQIFILDCLSNYNPKDDREAQSICERVTPRLSHANSAVVLSAVKVLMKFLELLPKDSDYYNMLLKKLAPPLVTLLSGEPEVQYVALRNINLIVQKRPEILKQEIKVFFVKYNDPIYVKLEKLDIMIRLASQANIAQVLAELKEYATEVDVDFVRKAVRAIGRCAIKVEQSAERCVSTLLDLIQTKVNYVVQEAIVVIRDIFRKYPNKYESIIATLCENLDSLDEPDARAAMIWIVGEYAERIDNADELLESFLEGFHDESTQVQLTLLTAIVKLFLKKPSETQELVQQVLSLATQDSDNPDLRDRGYIYWRLLSTDPVTAKEVVLSEKPLISEETDLIEPTLLDELICHIGSLASVYHKPPNAFVEGSHGIHRK | soluble |
| MGSDKIHHHHHHMRIFTASLATETNTFSPVPTDRASFEMAFYAAPGKHPETPTLCSSPIVALRKRAAAEGLTVIEGTATWAEPGGLLQRQAFEELRDEILDQLKAAMPVDAVVLGLHGAMVAQGYDDCEGDLLERVRAIVGPGVLVASEFDPHSHLTPKRVQNLNIFASFLEFPHTDFYERGEHVVELALDALKGRTKPVISTFDCRMIAVLPTSKEPMRSFVDRIKALQGKDGILSISVIHGFMAADVPEMGTRILVVTDNDPQAGAALAAALGRELIAMREQTSMAMLDTDQGIDRALAAHAANPSKPAVIADVWDNPGGGVAGDGTYILRRLIERGVNNAGIATIWDPIAVTFCHAAGEGAVIDLRFGGKSGPLGGEPIDARVTVLKVANEGWQSFGPSRVTLGPSAVVRIEDTGIDIILNTNRTQTFEPDIFSNLGIDPMTKNVLVVKSTNHFHAGFAPVAAEIIYVDAPSSYPSNPRTTNYRKLNRAIWPRVEDPW | not soluble |
| MGCMNRENALHIVKQQMHEKRYIHTIGVMETAIELAKLYGVDEKKAEMAAIFHDYAKCRAISEMEEIIKREDLPKDLLCYNKELWHAPVGAYLVEKEVGITDSEILQAITYHTSGHENMTMLDKVIYVADYIEPGRKFPGVEEARKLAYTDINQALLFALKRTIQFLMEKDQTIYPLTFQTYNAVIKEEMSK | not soluble |
| MPELKVVVSIKQVPDVDELRIDPVTNNLVREGVPAVINPPDLHAIEEAVRLKERYGAKTIVITMGPPQADSALREALAMGIDEAYLISDRAMAGADTWATSYTISKAVQKLGGADLILFGRRAVDGETEQVGPQTGKWLGLPVIGYVSEIKSLEKDKIVVTRTTEFDEEVIEAPVPVVLTILEVANKPRQPDILSLIKAKTAKVTVWNKDDIKAEPNKIGLAGSPTKVIKVQPPPKTRKAEIIDGKKDVEKAAKWFLDKIFESLKE | not soluble |
| MEAGGLPLELWRMILAYLHLPDLGRCSLVCRAWYELILSLDSTRWRQLCLGCTECRHPNWPNQPDVEPESWREAFKQHYLASKTWTKNALDLESSICFSLFRRRRERRTLSVGPGREFDSLGSALAMASLYDRIVLFPGVYEEQGEIILKVPVEIVGQGKLGEVALLASIDQHCSTTRLCNLVFTPAWFSPIMYKTTSGHVQFDNCNFENGHIQVHGPGTCQVKFCTFKNTHIFLHNVPLCVLENCEFVGSENNSVTVEGHPSADKNWAYKYLLGLIKSSPTFLPTEDSD | soluble |
| MSWQEKINAALDARRAADALRRRYPVAQGAGRWLVADDRQYLNFSSNDYLGLSHHPQIIRAWQQGAEQFGIGSGGSGHVSGYSVVHQALEEELAEWLGYSRALLFISGFAANQAVIAAMMAKEDRIAADRLSHASLLEAASLSPSQLRRFAHNDVTHLARLLASPCPGQQMVVTEGVFSMDGDSAPLAEIQQVTQQHNGWLMVDDAHGTGVIGEQGRGSCWLQKVKPELLVVTFGKGFGVSGAAVLCSSTVADYLLQFARHLIYSTSMPPAQAQALRASLAVIRSDEGDARREKLAALITRFRAGVQDLPFTLADSCSAIQPLIVGDNSRALQLAEKLRQQGCWVTAIRPPTVPAGTARLRLTLTAAHEMQDIDRLLEVLHGNG | soluble |
| MSLELTVFSIGDWGEKTECLVNVTTKMGSLESAMNPKFIISVGDNFYQRGVKSVEDAAWTEILEEPFGKLSKHLKVHSCLGDHDWRGSTTAQIDRTNYANNTRWYLPGYWWYEKVTFTSEVSLPSLFEKSGLGEISANNSFHFNSSKTENSTSCEIDCLDEIVDNLNTMVNRNNSWNEDLSYKTSISEYFSEKQVNSTAVFIYIDSWTLTQDPFKKTSISYKYSQLEFIEQTLKAAVFENVDWIILVTHYSIYSSGLHGPHTRLASILMPLIKKYRVDFIISGHDHHSEILVPEDFNSYFQIVGASSKPRTSFGATDENSIFKSNTCSFASFTFSKDIAVSRIFSINSSLFSYFKRSNKFEREGHHHHHH | not soluble |
| MKLLQRGVALALLTTFTLASETALAYEQDKTYKITVLHTNDHHGHFWRNEYGEYGLAAQKTLVDGIRKEVAAEGGSVLLLSGGDINTGVPESDLQDAEPDFRGMNLVGYDAMAIGNHEFDNPLTVLRQQEKWAKFPLLSANIYQKSTGERLFKPWALFKRQDLKIAVIGLTTDDTAKIGNPEYFTDIEFRKPADEAKLVIQELQQTEKPDIIIAATHMGHYDNGEHGSNAPGDVEMARALPAGSLAMIVGGHSQDPVCMAAENKKQVDYVPGTPCKPDQQNGIWIVQAHEWGKYVGRADFEFRNGEMKMVNYQLIPVNLKKKVTWEDGKSERVLYTPEIAENQQMISLLSPFQNKGKAQLEVKIGETNGRLEGDRDKVRFVQTNMGRLILAAQMDRTGADFAVMSGGGIRDSIEAGDISYKNVLKVQPFGNVVVYADMTGKEVIDYLTAVAQMKPDSGAYPQFANVSFVAKDGKLNDLKIKGEPVDPAKTYRMATLNFNATGGDGYPRLDNKPGYVNTGFIDAEVLKAYIQKSSPLDVSVYEPKGEVSWQ | soluble |
| MGSDKIHHHHHHDQEPPLYVNENDIFTSPTRIEATLNGLYAAIKNTGTKSLMGGKSYLVFDNRGDDVINISNNLVTLFNTYNMNVGITDAENADTWTYAYLAINKVNTFLQSLEGAREVAGENYDRYVQEAKFVRALAYYYLNNLYPTPYSVNPDAKSVPLRLTAEAGTENNNMPRSTVKQIYEHILSDLENISALDTEVNTYTGVTHATQAAANMLKMRVYMAMNEWDKAITAGELVTGYSLPEDVTLIYKAPYFSQESIFSLPMADTNIPNTQQSLAEYYYDGKIMLIDTKSGIMSKPDYSLATDKRIIAFKGEKDLLMKFTDAKTKLQWVPIFRYAETLLDLAECYANKAGGEATAKSLLKQVRGRSVDAATDPLNIDNLSGDALKEAIYNEKRLEFIGEGIRGIDIMRRGEHFIKVGENETINVGPSDEKYTWPIPQVELLLNKDINK | not soluble |
| MKPIIVKKGDIRRLLKESGEIDGNDGRISVAAHILYQFGDRIVFVKAYENEDIDLKIKNRKNDYRYIKVIASQNGEFHIMDLPIGDRRIGSETLYGLIMASETFGTRLRNEILNMISFEMKRRNSIWILVDKDSHAYYPFTTHSITEIILHDVEYRFERGLIDRNLEIRVPVQFIYNYWQRYLKAKNRTPGEVWASMILQ | not soluble |
| MKKMGGKIFAVRVTQGQEENTARLIYSKVKTYNLPIYAILAPSKVKGYIFIEAPEKSVVDEAIRGIRHARGVLPGEIPFSEIEHFLEEKPAVSGLEPGDIVELISGPFKGEKAKVVRVDESKDEIVVELIGAIVPIPVTVRGEYVRLISKRQKEE | soluble |
| MGSDKIHHHHHHMTSTVFAQSDDFTTWTKFKVNYKIDPRFSLLSNLEFRTKDDVSRMDRLGLAIGGEYRAYSFLKLEAGYETHFRNLGDSEWKFRHRYNFGATASFQYQWLKIALRERFQQTFDRGDSKARLRSRLKLAYAPEKGIVSPYFSIEIYQSLDDAPFWRADRMRYRPGVEIALAKRWALDIFYCYQYESPKGKHIAGVEIGYSF | not soluble |
